Data set [1] addresses Bacillus megaterium TnrA, full length (Bacillus megaterium). The data set is described as follows: crystal structure.
For data set [2], the target named is Bacillus subtilis GlnK, wild type (Bacillus subtilis). The data set can be described thus: SAXS.
For data set [3], the target named is Bacillus subtilis TnrA, full length (Bacillus subtilis) (UniProt Q45666). The data set can be described thus: ITC. A general note: Isothermal titration calorimetry measures the heat released or taken up as one component is titrated into another.
Data set [4] deals with Bacillus subtilis GlnK, wild type (Bacillus subtilis). The data set can be described thus: crystal structure.
The next data set deals with T1, GlnRΔ18 (Bacillus subtilis, UniProt P37582 1-117, del118-135).
T1 sequence: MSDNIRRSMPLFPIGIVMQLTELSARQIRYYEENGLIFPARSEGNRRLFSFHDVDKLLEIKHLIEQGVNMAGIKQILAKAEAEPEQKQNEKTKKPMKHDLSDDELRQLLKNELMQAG
The data set is described as follows: fluorescence polarization. For orientation: Fluorescence polarisation rises when a labelled molecule tumbles more slowly, as on binding a larger partner.

The target in data set [5] is T2, TnrA (Bacillus subtilis, UniProt Q45666 1-110).
T2 sequence: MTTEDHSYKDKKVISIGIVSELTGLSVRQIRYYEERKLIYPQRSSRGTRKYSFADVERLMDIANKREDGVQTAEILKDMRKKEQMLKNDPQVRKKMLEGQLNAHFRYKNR
The data set is described as follows: fluorescence polarization.

The target in a further data set is T3, GlnR FL (Bacillus subtilis, UniProt P37582 1-135).
T3 sequence: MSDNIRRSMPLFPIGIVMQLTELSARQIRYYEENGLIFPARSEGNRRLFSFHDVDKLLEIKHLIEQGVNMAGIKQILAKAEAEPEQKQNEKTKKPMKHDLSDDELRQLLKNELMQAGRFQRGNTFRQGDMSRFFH
The data set can be described thus: fluorescence polarization.

A further data set concerns the target T4, TnrA;GlnK (Bacillus subtilis;Bacillus subtilis, UniProt Q45666;Q07428 1-110;1-116, |).
T4 sequence 1: T2 sequence
T4 sequence 2: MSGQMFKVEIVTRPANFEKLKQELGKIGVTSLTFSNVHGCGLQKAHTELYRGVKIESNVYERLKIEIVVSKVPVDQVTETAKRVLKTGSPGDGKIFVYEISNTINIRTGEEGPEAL
The data set can be described thus: SAXS.

Data set [6] concerns the target T5, Bacillus subtilis glutamine synthetase, wild type, full length (Bacillus subtilis, UniProt P12425 1-444).
T5 sequence (looked up): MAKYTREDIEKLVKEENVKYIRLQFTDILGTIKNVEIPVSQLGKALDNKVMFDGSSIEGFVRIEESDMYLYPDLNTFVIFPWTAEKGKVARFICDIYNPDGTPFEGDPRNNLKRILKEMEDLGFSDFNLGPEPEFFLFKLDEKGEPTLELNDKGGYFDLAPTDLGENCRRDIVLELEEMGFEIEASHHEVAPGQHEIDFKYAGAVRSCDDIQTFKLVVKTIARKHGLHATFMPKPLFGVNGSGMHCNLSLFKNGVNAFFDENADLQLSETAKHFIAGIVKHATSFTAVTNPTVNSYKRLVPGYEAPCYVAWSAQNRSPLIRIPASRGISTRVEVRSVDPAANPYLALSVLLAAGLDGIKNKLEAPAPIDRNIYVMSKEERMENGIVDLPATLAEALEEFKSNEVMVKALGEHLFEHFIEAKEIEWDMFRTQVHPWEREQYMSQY
The data set is described as follows: crystal structure.

The data set “crystal structure” deals with the molecule itself. The data set can be described thus: crystal structure.
Data set [7] deals with T5, Bacillus subtilis glutamine synthetase, …. The data set is described as follows: crystal structure. This is another data set of the same source.
Another data set addresses T6, GS(E424K) (Bacillus subtilis, UniProt P12425 1-444, E424K).
T6 sequence (looked up): T5 sequence (looked up) with E424K
The data set is described as follows: fluorescence polarisation.

Data set [8] has as its target T7, TnrA (Bacillus megaterium, UniProt G2RUZ1 1-108).
T7 sequence: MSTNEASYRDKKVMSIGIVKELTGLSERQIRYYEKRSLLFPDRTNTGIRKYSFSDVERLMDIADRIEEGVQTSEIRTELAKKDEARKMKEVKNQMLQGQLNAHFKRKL
The data set can be described thus: X-ray crystallography.

Residue numbers refer to the chain shown, from its start. Numbers in names are those of the source. Where two headings read alike, the source gives them in different places.

In general, stoichiometry N refers to the number of molecules, sites or subunits per partner or assembly. For orientation: Kd means the constant that tells how readily two partners part at equilibrium.

Molecule “Bacillus megaterium TnrA, full length (natural protein)” had a stoichiometry N in data set [1] of 2.
Regarding “Bacillus subtilis GlnK, wild type (natural protein)”, the stoichiometry N in data set [2] and in data set [4] was 3 in each case. The same molecule yielded a stoichiometry N (GlnK subunit per TnrA subunit) in data set [3] of 0.5.

B1: 21mer FP (dsDNA)
DNA 1: CGTGTAAGATTTCCTGACACG
DNA 2: CGTGTCAGGAAATCTTACACG
B1: the Kd in the data set with GlnRΔ18 turned out to be 6 ± 0.9 nM; with TnrA [5], 11.6 ± 1.8 nM. Moreover, in the data set with GlnR FL, the binding signal was more than 10 fold weaker than GlnRΔ18.

B2: 17mer SAXS (dsDNA)
DNA 1: TGTCAGATAATCTGACA
DNA 2: TGTCAGATTATCTGACA
Turning to B2, the binding result in the data set with TnrA;GlnK was “binds”.

B3: TnrA(74–110) (domain or fragment, Bacillus subtilis, UniProt Q45666 74-110, looked up)
chain: EILKDMRKKEQMLKNDPQVRKKMLEGQLNAHFRYKNR
As to B3, the binding result in [6] is recorded as “binds”.

B4: 17mer FP (dsDNA)
DNA 1: TGTAAGATTTCCTGACA
DNA 2: TGTCAGGAAATCTTACA
B4: the figures for the Kd in the data set with GlnRΔ18 and with TnrA [5] were 8.1 ± 0.3 nM and 15.7 ± 0.9 nM, respectively.

B5: GlnRΔ18 (domain or fragment, Bacillus subtilis, UniProt P37582 1-117, looked up)
chain: T1 sequence
As for B5, the “stoichiometry N” value in “crystal structure” stood at 2.

B6: GlnR C-terminal peptide (peptide)
peptide: RFQRGNTFRQGDMSRFFH
In the case of B6, in data set [7], the binding result is recorded as “binds”.

B7: TnrA(K108E) (natural protein, Bacillus subtilis, UniProt Q45666 1-110, looked up)
chain: T2 sequence with K108E
On to B7, for which the binding result in the data set with GS(E424K) is on record as “binds”.

B8: 21mer site (crystal) (dsDNA)
DNA 1: CGTGTAAGATTTCCTGACACG
DNA 2: CGTGTCAGGAAATCTTACACG
For the molecule B8, the binding result in the data set with TnrA [8] was “binds”.
